These results are taken from the supplement of paper PMC7877785.

± gives the uncertainty stated by the source.

This data set is described as follows: self-splicing fitness, log relative to wild type (ln ratio); higher = more splicing; Tetrahymena group I intron in knt gene, E. coli kanamycin selection, DiMSum; sequences stand for … in CUCUCU…GGAGGGAAAAGUUAUCAGGCAUGCACCUGGUAGCUAGUCUUUAAACCAAUAGAUUGCAUCGGUUUAAAAGGCAAGACCGUCAAAUUGCGGGAAAGGGGUCAACAGCCGUUCAGUACCAAGUCUCAGGGGAAACUUUGAGAUGGCCUUGCAAAGGGUAUGGUAAUAAGCUGACGGACAUGGUCCUAACCACGCAGCCAAGUCCUAAGUCAACAGAUCUUCUGUUGAUAUGGAUGCAGUUCACAGACUAAAUGUCGGUCGGGGAAGAUGUAUUCUUCUCAUAAGAUAUAGUCGGACCUCUCCUUAAUGGGAGCUAGCGGAUGAAGUGAUGCAACACUGGAGCCGCUGGGAACUAAUUUGUAUGCGAAAGUAUAUUGAUUAGUUUUGGAGUACUCGUGGUCG
An outline of the steps: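 Six replicate transformations of E. coli BL21(DE3) with a pET-22b(+) library were grown overnight at 37°C or 30°C. The library randomised all eight P1ex-region intron nucleotides, the intron lying in the knt kanamycin-resistance gene, and plates were LB agar with or without 25 μg/mL kanamycin plus 100 μg/mL carbenicillin, 50 μM IPTG and 0.2% rhamnose. Pooled colonies were amplicon-sequenced on an Illumina HiSeq 2500, and fitness is the DiMSum error-weighted combination of wild-type-normalised replicate fold changes, kanamycin versus none.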

Consider AGUGAGCAAUAUUACGGAGU, for which the “self-splicing fitness (ln)” value is, setting by setting: (30 °C) -2.86 ± 0.3; (37 °C) -3.09 ± 0.35. In the case of AAUAAGCAAUAUUACGGGUG, the “self-splicing fitness (ln)” value is, setting by setting: (30 °C) -1.59 ± 0.12; (37 °C) -1.04 ± 0.11. Take UCUUAGCAAUAUUACGCUGU: the “self-splicing fitness (ln)” value (30 °C) is -3.65 ± 0.37 and the “self-splicing fitness (ln)” value (37 °C) was -1.45 ± 0.26.

As to GUCAAGCAAUAUUACGGUGG, the “self-splicing fitness (ln)” value runs as follows: (30 °C) -4.45 ± 0.15; (37 °C) -3.19 ± 0.17. Turning to UUCUAGCAAUAUUACGGAGA, the “self-splicing fitness (ln)” value was -2.45 ± 0.29 (30 °C) and -2.41 ± 0.49 (37 °C). For the sequence AGGCAGCAAUAUUACGUUCU, the “self-splicing fitness (ln)” value (30 °C) is -1.86 ± 0.08 and the “self-splicing fitness (ln)” value (37 °C) is -0.817 ± 0.09. Turning to UAACAGCAAUAUUACGGUAC, the “self-splicing fitness (ln)” value (30 °C) is -3.84 ± 0.2 and the “self-splicing fitness (ln)” value (37 °C) was -2.06 ± 0.13.

Regarding ACAGAGCAAUAUUACGUGUU, the “self-splicing fitness (ln)” value was -2.64 ± 0.12 (30 °C) and -2.51 ± 0.18 (37 °C). The corresponding values for GCCUAGCAAUAUUACGUACA are -2.54 ± 0.14 and -1.7 ± 0.13. For UCCUAGCAAUAUUACGCGGU, the “self-splicing fitness (ln)” value is -2.34 ± 0.17 (30 °C) and -1.63 ± 0.18 (37 °C). Turning to GCUUAGCAAUAUUACGUUAA, the “self-splicing fitness (ln)” value (37 °C) was -2.84 ± 0.29. As for CAGUAGCAAUAUUACGGGGU, the “self-splicing fitness (ln)” value is, setting by setting: (30 °C) -4.35 ± 0.32; (37 °C) -2.1 ± 0.22.

For UGCGAGCAAUAUUACGGGUG, the “self-splicing fitness (ln)” value was -1.72 ± 0.11 (30 °C) and -1.49 ± 0.12 (37 °C). With UCCCAGCAAUAUUACGCCUU, the “self-splicing fitness (ln)” value (30 °C) is -3.44 ± 0.2 and the “self-splicing fitness (ln)” value (37 °C) is -1.28 ± 0.15.

Regarding ACAUAGCAAUAUUACGAGCC, the “self-splicing fitness (ln)” value by setting is: (30 °C) -3.94 ± 0.36; (37 °C) -2.42 ± 0.28. The corresponding values for UGCAAGCAAUAUUACGUCUC are -1.76 ± 0.12 and -2.67 ± 0.25.

On to CCCCAGCAAUAUUACGAGUA, for which the “self-splicing fitness (ln)” value (30 °C) is -2.91 ± 0.12 and the “self-splicing fitness (ln)” value (37 °C) was -2.58 ± 0.14. The corresponding values for AGAGAGCAAUAUUACGCAUA are -3.84 ± 0.39 and -2.96 ± 0.47. The corresponding values for UCAGAGCAAUAUUACGGGGG are -2.66 ± 0.23 and -3.15 ± 0.35. As for UUUCAGCAAUAUUACGGGGU, the “self-splicing fitness (ln)” value was -3.58 ± 0.17 (30 °C) and -1.68 ± 0.15 (37 °C). The corresponding values for UAUUAGCAAUAUUACGGUUG are -0.953 ± 0.15 and -0.107 ± 0.17. The corresponding values for GAGCAGCAAUAUUACGUGCU are -3.11 ± 0.2 and -2.2 ± 0.23. As for GGCGAGCAAUAUUACGUCGG, the “self-splicing fitness (ln)” value reads like this: (30 °C) -3.78 ± 0.33; (37 °C) -2.13 ± 0.28. The corresponding values for CAGGAGCAAUAUUACGUUAC are -2.43 ± 0.13 and -3.01 ± 0.21. Turning to CGGGAGCAAUAUUACGUAAA, the “self-splicing fitness (ln)” value (30 °C) was -2.94 ± 0.34. CAGCAGCAAUAUUACGGUAG: the “self-splicing fitness (ln)” value by setting is: (30 °C) -0.155 ± 0.087; (37 °C) 0.0584 ± 0.11.

As to AUCGAGCAAUAUUACGUAUC, the “self-splicing fitness (ln)” value runs as follows: (30 °C) -2.86 ± 0.35; (37 °C) -3.28 ± 0.37. For AGCGAGCAAUAUUACGCACU, the “self-splicing fitness (ln)” value runs as follows: (30 °C) -1.62 ± 0.2; (37 °C) -1.37 ± 0.29. Consider GAGCAGCAAUAUUACGGAGA, for which the “self-splicing fitness (ln)” value (30 °C) was -4.02 ± 0.25 and the “self-splicing fitness (ln)” value (37 °C) is -2.16 ± 0.16. For ACUUAGCAAUAUUACGGGAA, the “self-splicing fitness (ln)” value (30 °C) is -1.99 ± 0.2 and the “self-splicing fitness (ln)” value (37 °C) is -1.65 ± 0.16.

For the sequence AGGAAGCAAUAUUACGAGAA, the “self-splicing fitness (ln)” value (37 °C) is -1.39 ± 0.32. Consider CUCUAGCAAUAUUACGAACA, for which the “self-splicing fitness (ln)” value (37 °C) is -2.98 ± 0.34. Consider UCUCAGCAAUAUUACGCGAU, for which the “self-splicing fitness (ln)” value by setting is: (30 °C) -4.5 ± 0.34; (37 °C) -2.1 ± 0.36. As for GCGCAGCAAUAUUACGAUUC, the “self-splicing fitness (ln)” value reads like this: (30 °C) -0.291 ± 0.09; (37 °C) 0.1 ± 0.1. With CGUCAGCAAUAUUACGCAUC, the “self-splicing fitness (ln)” value is, setting by setting: (30 °C) -2.47 ± 0.4; (37 °C) -2.89 ± 0.4. As to CAGUAGCAAUAUUACGUCUA, the “self-splicing fitness (ln)” value by setting is: (30 °C) -0.56 ± 0.064; (37 °C) -0.256 ± 0.071.

For the sequence UCCGAGCAAUAUUACGUCGC, the “self-splicing fitness (ln)” value reads like this: (30 °C) -3.15 ± 0.28; (37 °C) -1.24 ± 0.3. The corresponding values for AGUGAGCAAUAUUACGUUGG are -4.42 ± 0.36 and -1.98 ± 0.26.

GUAGAGCAAUAUUACGUAGA: the “self-splicing fitness (ln)” value is, setting by setting: (30 °C) -4.79 ± 0.41; (37 °C) -1.55 ± 0.25.

CAUCAGCAAUAUUACGUACG: the “self-splicing fitness (ln)” value reads like this: (30 °C) 0.0534 ± 0.077; (37 °C) -0.0455 ± 0.097. With AACCAGCAAUAUUACGGUAU, the “self-splicing fitness (ln)” value was -2 ± 0.071 (30 °C) and -0.457 ± 0.08 (37 °C). For UUCAAGCAAUAUUACGGUAG, the “self-splicing fitness (ln)” value is, setting by setting: (30 °C) -0.693 ± 0.096; (37 °C) -0.128 ± 0.13. For the sequence CGCAAGCAAUAUUACGACUC, the “self-splicing fitness (ln)” value reads like this: (30 °C) -1.3 ± 0.12; (37 °C) -0.869 ± 0.19. Consider UGUGAGCAAUAUUACGAACU, for which the “self-splicing fitness (ln)” value reads like this: (30 °C) -0.733 ± 0.14; (37 °C) 0.203 ± 0.21. For ACUCAGCAAUAUUACGCACG, the “self-splicing fitness (ln)” value (30 °C) is -1 ± 0.078 and the “self-splicing fitness (ln)” value (37 °C) is -0.784 ± 0.13. For the sequence CCUCAGCAAUAUUACGACGG, the “self-splicing fitness (ln)” value was -2.74 ± 0.18 (30 °C) and -1.64 ± 0.27 (37 °C). Take ACGGAGCAAUAUUACGGGAC: the “self-splicing fitness (ln)” value (30 °C) is -2.93 ± 0.39 and the “self-splicing fitness (ln)” value (37 °C) was -2.69 ± 0.36. As for GUCUAGCAAUAUUACGCGAA, the “self-splicing fitness (ln)” value reads like this: (30 °C) -1.36 ± 0.23; (37 °C) -0.134 ± 0.19. The corresponding values for GGCCAGCAAUAUUACGAUCU are -0.383 ± 0.06 and -0.133 ± 0.078. As for AGUUAGCAAUAUUACGCACA, the “self-splicing fitness (ln)” value reads like this: (30 °C) 0.242 ± 0.2; (37 °C) 0.395 ± 0.28. On to AUAUAGCAAUAUUACGUGCC, for which the “self-splicing fitness (ln)” value was -1.82 ± 0.38 (30 °C) and -1.01 ± 0.41 (37 °C). As to ACAAAGCAAUAUUACGCAAA, the “self-splicing fitness (ln)” value (30 °C) is -2.72 ± 0.14 and the “self-splicing fitness (ln)” value (37 °C) is -1.6 ± 0.12. On to ACCUAGCAAUAUUACGCCGA, for which the “self-splicing fitness (ln)” value (30 °C) is -2.23 ± 0.13 and the “self-splicing fitness (ln)” value (37 °C) is -1.01 ± 0.13. In the case of CUUGAGCAAUAUUACGAACC, the “self-splicing fitness (ln)” value (37 °C) was -1.54 ± 0.44. Consider UGUCAGCAAUAUUACGAACC, for which the “self-splicing fitness (ln)” value reads like this: (30 °C) -0.269 ± 0.27; (37 °C) -0.024 ± 0.26. For GAAUAGCAAUAUUACGCCGA, the “self-splicing fitness (ln)” value was -1.62 ± 0.31 (30 °C) and 0.319 ± 0.22 (37 °C). AUUGAGCAAUAUUACGAACA: the “self-splicing fitness (ln)” value by setting is: (30 °C) -3.6 ± 0.32; (37 °C) -2.75 ± 0.25. For UGCUAGCAAUAUUACGUGAU, the “self-splicing fitness (ln)” value runs as follows: (30 °C) -1.88 ± 0.13; (37 °C) -1.39 ± 0.16. On to GUGUAGCAAUAUUACGCCAU, for which the “self-splicing fitness (ln)” value (30 °C) is -3.15 ± 0.29 and the “self-splicing fitness (ln)” value (37 °C) was -1.51 ± 0.22. Regarding UCCCAGCAAUAUUACGGGAC, the “self-splicing fitness (ln)” value is, setting by setting: (30 °C) -2.69 ± 0.17; (37 °C) -2.49 ± 0.3.

Consider GGGUAGCAAUAUUACGAAGA, for which the “self-splicing fitness (ln)” value by setting is: (30 °C) -1.72 ± 0.21; (37 °C) -1.62 ± 0.21.
